Assay results: the supplement of paper PMC7877785
± gives the uncertainty stated by the source.

Assay: self-splicing fitness, log relative to wild type (ln ratio); higher = more splicing; Tetrahymena group I intron in knt gene, E. coli kanamycin selection, DiMSum; sequences stand for … in CUCUCU…GGAGGGAAAAGUUAUCAGGCAUGCACCUGGUAGCUAGUCUUUAAACCAAUAGAUUGCAUCGGUUUAAAAGGCAAGACCGUCAAAUUGCGGGAAAGGGGUCAACAGCCGUUCAGUACCAAGUCUCAGGGGAAACUUUGAGAUGGCCUUGCAAAGGGUAUGGUAAUAAGCUGACGGACAUGGUCCUAACCACGCAGCCAAGUCCUAAGUCAACAGAUCUUCUGUUGAUAUGGAUGCAGUUCACAGACUAAAUGUCGGUCGGGGAAGAUGUAUUCUUCUCAUAAGAUAUAGUCGGACCUCUCCUUAAUGGGAGCUAGCGGAUGAAGUGAUGCAACACUGGAGCCGCUGGGAACUAAUUUGUAUGCGAAAGUAUAUUGAUUAGUUUUGGAGUACUCGUGGUCG
Method in brief: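 DiMSum derived fitness as the error-weighted combination of fold changes across replicates, kanamycin versus no kanamycin, normalised to wild type. E. coli BL21(DE3) held the library, which randomised all eight P1ex-region intron nucleotides within the knt kanamycin-resistance gene on pET-22b(+). Six replicate transformations grew overnight at 37°C or 30°C on LB agar with or without 25 μg/mL kanamycin, also containing 100 μg/mL carbenicillin, 50 μM IPTG and 0.2% rhamnose, and pooled colonies were amplicon-sequenced on an Illumina HiSeq 2500.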

Row | Sequence | self-splicing fitness (ln) (30 °C) | self-splicing fitness (ln) (37 °C)
1 | GGUGAGCAAUAUUACGUCUG | -3.31 ± 0.17 | -2.03 ± 0.14
2 | CAAUAGCAAUAUUACGCAAA | -3.95 ± 0.3 | -2.6 ± 0.27
3 | UUUCAGCAAUAUUACGAUUG | -0.724 ± 0.087 | -0.057 ± 0.11
4 | AAGUAGCAAUAUUACGAAGA | -2.57 ± 0.34 | -2.06 ± 0.34
5 | AAUAAGCAAUAUUACGUAAA | -1.89 ± 0.1 | -1.22 ± 0.14
6 | GGAUAGCAAUAUUACGGCUA | -0.0854 ± 0.16 | -0.532 ± 0.14
7 | GAUCAGCAAUAUUACGCGAG | -0.684 ± 0.07 | -1.15 ± 0.073
8 | AAAUAGCAAUAUUACGCGCG | -0.988 ± 0.1 | -0.952 ± 0.11
9 | AUCAAGCAAUAUUACGGUUA | -1.06 ± 0.092 | -0.342 ± 0.095
10 | AACGAGCAAUAUUACGAUUA | -1.89 ± 0.16 | -1.02 ± 0.16
11 | CGUUAGCAAUAUUACGACUA | -1.12 ± 0.16 | 0.415 ± 0.14
12 | UAGUAGCAAUAUUACGCGCG | -0.283 ± 0.077 | -0.281 ± 0.1
13 | ACAAAGCAAUAUUACGAGUU | -3.3 ± 0.099 | -1.68 ± 0.096
14 | ACGGAGCAAUAUUACGUAGC |  | -1.64 ± 0.21
15 | AGGCAGCAAUAUUACGUACU | -0.408 ± 0.079 | 0.323 ± 0.12
16 | CAUAAGCAAUAUUACGACUG | -0.582 ± 0.072 | -0.476 ± 0.1
17 | CACAAGCAAUAUUACGUACC | -3.9 ± 0.21 | -1.36 ± 0.14
18 | GGAUAGCAAUAUUACGGUAG |  | -3.74 ± 0.34
19 | UCCUAGCAAUAUUACGACGG | -2.14 ± 0.13 | -0.657 ± 0.14
20 | CGUUAGCAAUAUUACGCUCG | -1.41 ± 0.14 | -1.38 ± 0.18
21 | GCGUAGCAAUAUUACGAAGU | -2.22 ± 0.15 | -1.11 ± 0.16
22 | GUGCAGCAAUAUUACGUCAG | -3.02 ± 0.13 | -1.83 ± 0.11
23 | GACUAGCAAUAUUACGGGGA | -2.06 ± 0.11 | -0.995 ± 0.1
24 | AUUGAGCAAUAUUACGUUUA | -2.83 ± 0.19 | -2.98 ± 0.27
25 | UAUAAGCAAUAUUACGUGGC | -3.47 ± 0.32 | -2.73 ± 0.44
26 | CGGCAGCAAUAUUACGAUGU | -3.85 ± 0.31 | -3.14 ± 0.35

Row | Sequence | self-splicing fitness (ln) (30 °C) | self-splicing fitness (ln) (37 °C)
27 | GGCCAGCAAUAUUACGAUAA | -3.64 ± 0.4 | -1.09 ± 0.15
28 | GCUCAGCAAUAUUACGUCCC | -0.208 ± 0.24 | 0.272 ± 0.24
29 | GUGUAGCAAUAUUACGCGGG | -3.73 ± 0.2 | -2.75 ± 0.2
30 | CUAAAGCAAUAUUACGGUCG | 0.0851 ± 0.065 | 0.151 ± 0.086
31 | GAACAGCAAUAUUACGGAAU | -1.6 ± 0.095 | -1.18 ± 0.11
32 | UAUUAGCAAUAUUACGGCAA | -1.06 ± 0.14 | -0.784 ± 0.15
33 | GAUGAGCAAUAUUACGUUAA | -2.39 ± 0.32 | 
34 | UCUAAGCAAUAUUACGUGCC | -4.37 ± 0.39 | 
35 | AUUGAGCAAUAUUACGAACG | -2.34 ± 0.18 | -0.91 ± 0.3
36 | CGUUAGCAAUAUUACGACCG | -1.13 ± 0.14 | -0.193 ± 0.2
37 | CCUGAGCAAUAUUACGACCG | -3.73 ± 0.39 | -2.5 ± 0.37
38 | AAACAGCAAUAUUACGGCCU | -1.51 ± 0.064 | -0.591 ± 0.071
39 | GUACAGCAAUAUUACGUGGU | -3.43 ± 0.16 | -2.49 ± 0.17
40 | UGUCAGCAAUAUUACGGGUU | -2.31 ± 0.1 | -1.07 ± 0.11
41 | UGCGAGCAAUAUUACGCUGC | -3.09 ± 0.25 | -2.31 ± 0.29
42 | GCUAAGCAAUAUUACGCCAA | -2.35 ± 0.33 | -1.74 ± 0.41
43 | UCUGAGCAAUAUUACGCUAG | -1.31 ± 0.17 | -1.43 ± 0.19
44 | UAAAAGCAAUAUUACGACAU | -1.09 ± 0.012 | -0.402 ± 0.032
45 | GAAAAGCAAUAUUACGUUAC | -2.67 ± 0.12 | -1.84 ± 0.13
46 | CGCGAGCAAUAUUACGGUGC |  | -2.47 ± 0.5
47 | UUAAAGCAAUAUUACGCCUC | -2.29 ± 0.19 | -1.43 ± 0.24
48 | GAGGAGCAAUAUUACGUGAA | -2.45 ± 0.3 | -1.74 ± 0.3
49 | CCAGAGCAAUAUUACGAGUA | -2.97 ± 0.23 | -3.39 ± 0.28
50 | GAUUAGCAAUAUUACGGGCG | -1.63 ± 0.15 | -1.33 ± 0.17
51 | GUUGAGCAAUAUUACGUGGC | -3.09 ± 0.25 | -2.17 ± 0.28
52 | GUCCAGCAAUAUUACGGAUA | -0.361 ± 0.056 | 0.0186 ± 0.063

Row | Sequence | self-splicing fitness (ln) (30 °C) | self-splicing fitness (ln) (37 °C)
53 | ACCAAGCAAUAUUACGCGGC | -3.19 ± 0.25 | -2.39 ± 0.21
54 | GGGGAGCAAUAUUACGCUGG | -2.98 ± 0.47 | -0.764 ± 0.47
55 | GCCCAGCAAUAUUACGGGUG | -1.58 ± 0.048 | -0.819 ± 0.054
56 | GAGAAGCAAUAUUACGCAGG | -2.26 ± 0.16 | -2.91 ± 0.2
57 | CCGAAGCAAUAUUACGCGAU | -3.78 ± 0.28 | -1.93 ± 0.33
58 | UGUAAGCAAUAUUACGUUUU | -4.1 ± 0.18 | -1.14 ± 0.096
59 | CAGAAGCAAUAUUACGGACG | -0.743 ± 0.092 | -0.739 ± 0.12
60 | GGUGAGCAAUAUUACGCUGA |  | -2.84 ± 0.48
61 | ACCCAGCAAUAUUACGAGUA | -2.39 ± 0.12 | -1.02 ± 0.079
62 | GUGAAGCAAUAUUACGUUAA | -2.09 ± 0.12 | -1.74 ± 0.14
63 | UCACAGCAAUAUUACGGGCU | -4 ± 0.18 | -3.47 ± 0.16
64 | GCCGAGCAAUAUUACGAUGA | -2.38 ± 0.12 | -1.28 ± 0.1
65 | GCGGAGCAAUAUUACGGGAU | 0.0919 ± 0.27 | 
66 | GUAGAGCAAUAUUACGUGCA | -0.339 ± 0.11 | 0.541 ± 0.18
67 | GUAUAGCAAUAUUACGGCAA | -0.453 ± 0.39 | -0.521 ± 0.35
68 | UACAAGCAAUAUUACGCACC | -1.62 ± 0.14 | -1.42 ± 0.23
69 | AUAUAGCAAUAUUACGCUUA | -1.53 ± 0.16 | -0.0426 ± 0.15
70 | UGUGAGCAAUAUUACGGCAA | -1.83 ± 0.23 | -1.27 ± 0.25
71 | AUACAGCAAUAUUACGUGAG | -1.51 ± 0.06 | -0.677 ± 0.097
72 | AAAAAGCAAUAUUACGAUCC | -0.549 ± 0.12 | 0.153 ± 0.18
73 | ACAGAGCAAUAUUACGAACU | -3.35 ± 0.21 | -1.61 ± 0.21
74 | UUCCAGCAAUAUUACGCGAA | -1.64 ± 0.079 | -0.865 ± 0.089
75 | GCUGAGCAAUAUUACGAACG | -1.53 ± 0.18 | -1.12 ± 0.23
76 | AUGUAGCAAUAUUACGGCUA | -2.45 ± 0.22 | -2.14 ± 0.25
77 | UCCAAGCAAUAUUACGUGGC | -3.9 ± 0.27 | -2.97 ± 0.33
